From the supplement of paper PMC6757056
± gives the standard deviation of the averaged measurements.

B1: library; a variant is named by its letters at N, in order (parent)
chain: GCUGUCACCGGUGUAUUACCCUAGUGGUCGACCGGUCUGAUGAGUCUNNNNNNAGACGAAACAGC

What was measured:
hypoxanthine [1] = variants of: B1; assay: normalized RNA/DNA level with ligand (relative to sTRSVctl = 100) (log10 (% of sTRSVctl)); ligand: hypoxanthine (xanthine aptamer); higher = less ribozyme self-cleavage, higher mRNA level; conditions: ligand concentration (+) RNA-Seq: 5 mM, HEK293T, reporter: mCherry (pCS4076), ligand present: yes
Outline: (§1)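 Library plasmids encoding reporter-linked ribozyme switches (mCherry, or eGFP for some folinic acid experiments) were transfected into HEK293T at 4 µg per 6-well well. Ligand, when used, was added 1 h before transfection. Total RNA was extracted with EDTA 72 h later, then reverse-transcribed, amplified, barcoded and sequenced. RNA level was RNA reads over DNA reads, divided by a spiked-in non-cleaving control (or the top 25 sequences), ×100, log10; only sequences with ≥100 DNA reads were kept.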

hypoxanthine [2] = variants of: B1; assay: normalized RNA/DNA level without ligand (relative to sTRSVctl = 100) (log10 (% of sTRSVctl)); ligand: hypoxanthine (xanthine aptamer); higher = less ribozyme self-cleavage, higher mRNA level; conditions: HEK293T, reporter: mCherry (pCS4076), ligand present: no
Outline: as §1

Row | Variant | normalized RNA/DNA level with ligand (log10) (hypoxanthine [1]) | normalized RNA/DNA level without ligand (log10) (hypoxanthine [2])
1 | GUUCGA | 1.95 ± 0.043 | 1.76 ± 0.023
2 | GUUCGG | 1.908 ± 0.019 | 1.604 ± 0.0043
3 | GUUCGC | 1.97 ± 0.025 | 1.96 ± 0.048
4 | GUUAUC | 1.96 ± 0.049 | 1.86 ± 0.037
5 | GUUAUA | 1.881 ± 0.0041 | 1.83 ± 0.025
6 | GUUAUU | 1.971 ± 0.0054 | 1.916 ± 0.0092
7 | GUUAGC | 1.91 ± 0.023 | 1.683 ± 0.0085
8 | GUUAGU | 1.9 ± 0.1 | 1.786 ± 0.011
9 | UUUCGG | 1.964 ± 0.012 | 1.94 ± 0.072
10 | UUUCGC | 1.95 ± 0.023 | 1.92 ± 0.047
11 | UUUCGA | 1.953 ± 0.013 | 1.915 ± 0.006
12 | UUUCGU | 1.96 ± 0.0091 | 1.851 ± 0.0071
13 | AUGUCA | 1.95 ± 0.08 | 1.741 ± 0.0086
14 | AUGUCG | 1.863 ± 0.018 | 1.52 ± 0.036
15 | AUGUCC | 1.98 ± 0.11 | 1.884 ± 0.011
16 | UUGCAU | 1.98 ± 0.024 | 1.862 ± 0.004
17 | UUGCUA | 1.95 ± 0.045 | 1.897 ± 0.0028
18 | UUGCUG | 2.009 ± 0.012 | 1.94 ± 0.028
19 | UUGCUC | 2.061 ± 0.0057 | 1.9913 ± 0.0008
20 | CUUCAU | 1.921 ± 0.0074 | 1.88 ± 0.067
21 | CUUCAA | 1.959 ± 0.013 | 1.82 ± 0.05
22 | CUUCAG | 1.92 ± 0.08 | 1.84 ± 0.07
23 | GUUGGA | 1.913 ± 0.0093 | 1.67 ± 0.042
24 | CUGCGU | 1.954 ± 0.013 | 1.93 ± 0.021

Row | Variant | normalized RNA/DNA level with ligand (log10) (hypoxanthine [1]) | normalized RNA/DNA level without ligand (log10) (hypoxanthine [2])
25 | CUGCGG | 1.96 ± 0.1 | 1.902 ± 0.0065
26 | CUUCCU | 1.98 ± 0.038 | 1.96 ± 0.032
27 | CUUCCA | 1.93 ± 0.043 | 1.91 ± 0.091
28 | AUUCGC | 1.96 ± 0.04 | 1.89 ± 0.023
29 | AUUCGA | 1.91 ± 0.042 | 1.738 ± 0.015
30 | AUUCGU | 1.93 ± 0.0044 | 1.897 ± 0.018
31 | UUUCAU | 1.915 ± 0.013 | 1.838 ± 0.0065
32 | UUUCAC | 1.9884 ± 0.0013 | 1.91 ± 0.031
33 | UUUCAA | 1.9299 ± 0.00082 | 1.866 ± 0.015
34 | UUUCAG | 1.9 ± 0.021 | 1.71 ± 0.042
35 | CUGCCG | 1.96 ± 0.082 | 1.8 ± 0.026
36 | CUGCCU | 1.95 ± 0.097 | 1.92 ± 0.036
37 | CUGCCC | 1.99 ± 0.039 | 1.971 ± 0.0093
38 | CUGCCA | 2.03 ± 0.043 | 1.886 ± 0.011
39 | UUUCCU | 2.05 ± 0.069 | 1.9175 ± 0.00088
40 | UUUCCC | 1.99 ± 0.024 | 1.96 ± 0.039
41 | UUUCCG | 1.99 ± 0.063 | 1.83 ± 0.07
42 | UUUCCA | 1.95 ± 0.037 | 1.894 ± 0.0032
43 | UUUAGA | 1.93 ± 0.054 | 1.75 ± 0.035
44 | UUUCUA | 1.91 ± 0.02 | 1.87 ± 0.048
45 | UUUCUU | 1.94 ± 0.036 | 1.95 ± 0.036
46 | UUUCUC | 1.99 ± 0.064 | 1.963 ± 0.0086
47 | UUUCUG | 1.942 ± 0.009 | 1.77 ± 0.026
48 | UUUAAG | 1.915 ± 0.016 | 1.71 ± 0.043

Row | Variant | normalized RNA/DNA level with ligand (log10) (hypoxanthine [1]) | normalized RNA/DNA level without ligand (log10) (hypoxanthine [2])
49 | UUUAAA | 1.94 ± 0.034 | 1.76 ± 0.036
50 | GUUAAG | 1.853 ± 0.0019 | 1.48 ± 0.027
51 | GUUAAA | 1.933 ± 0.0032 | 1.798 ± 0.0025
52 | AUGUUA | 1.92 ± 0.026 | 1.761 ± 0.011
53 | AUGUUC | 1.94 ± 0.14 | 1.85 ± 0.034
54 | CUUCGU | 2.028 ± 0.012 | 1.9 ± 0.045
55 | CUUCGC | 1.954 ± 0.0084 | 1.88 ± 0.034
56 | CUGGGU | 2 ± 0.069 | 1.881 ± 0.005
57 | CUGGGC | 1.98 ± 0.047 | 1.902 ± 0.0037
58 | CUGGGA | 2.03 ± 0.061 | 1.857 ± 0.015
59 | CUUAUC | 1.98 ± 0.02 | 1.987 ± 0.013
60 | CUUAUU | 1.95 ± 0.047 | 1.872 ± 0.005
61 | CUUAUG | 1.91 ± 0.039 | 1.91 ± 0.018
62 | AUUACC | 1.926 ± 0.013 | 1.94 ± 0.038
63 | AUUACU | 1.956 ± 0.0042 | 1.819 ± 0.017
64 | CUGUAC | 1.93 ± 0.033 | 1.75 ± 0.093
65 | CUGUAG | 1.88 ± 0.024 | 1.65 ± 0.032
66 | CUGUAA | 1.917 ± 0.017 | 1.713 ± 0.006
67 | GUGGUC | 1.96 ± 0.038 | 1.79 ± 0.054
68 | GUGGUU | 1.96 ± 0.064 | 1.875 ± 0.017
69 | CUUAAU | 1.9 ± 0.0027 | 1.76 ± 0.028
70 | CUUAAG | 1.93 ± 0.081 | 1.69 ± 0.018
71 | CUUAAA | 1.899 ± 0.0031 | 1.8 ± 0.036
72 | AUUCUA | 1.92 ± 0.041 | 1.84 ± 0.062

Row | Variant | normalized RNA/DNA level with ligand (log10) (hypoxanthine [1]) | normalized RNA/DNA level without ligand (log10) (hypoxanthine [2])
73 | AUUCUU | 1.94 ± 0.055 | 1.93 ± 0.023
74 | AUUCUG | 1.85 ± 0.061 | 1.61 ± 0.039
75 | GUGCUU | 1.96 ± 0.027 | 1.89 ± 0.019
76 | GUGCUC | 1.909 ± 0.011 | 1.85 ± 0.034
77 | GUGCUA | 1.93 ± 0.017 | 1.75 ± 0.093
78 | UUUGAU | 1.9 ± 0.052 | 1.7965 ± 0.0012
79 | UUUGAC | 1.927 ± 0.0075 | 1.84 ± 0.037
80 | GUGGGC | 1.81 ± 0.1 | 1.33 ± 0.11
81 | GUUGAC | 1.917 ± 0.015 | 1.72 ± 0.057
82 | GUUGAA | 1.918 ± 0.016 | 1.744 ± 0.0083
83 | AUUGAA | 1.91 ± 0.047 | 1.75 ± 0.026
84 | GUUCUG | 1.89 ± 0.058 | 1.54 ± 0.03
85 | GUUCUA | 1.949 ± 0.011 | 1.89 ± 0.039
86 | GUUCUC | 1.981 ± 0.0077 | 1.95 ± 0.02
87 | GUUCUU | 1.95 ± 0.051 | 1.92 ± 0.034
88 | AUUAAC | 1.881 ± 0.0094 | 1.8077 ± 0.0004
89 | AUGCCC | 1.97 ± 0.062 | 1.87 ± 0.048
90 | AUGCCG | 1.837 ± 0.01 | 1.49 ± 0.089
91 | AUGCCU | 1.958 ± 0.0056 | 1.818 ± 0.0027
92 | AUUAGU | 1.95 ± 0.028 | 1.712 ± 0.0075
93 | UUUAUG | 1.92 ± 0.027 | 1.772 ± 0.014
94 | UUUAUC | 1.97 ± 0.03 | 1.99 ± 0.021
95 | CUGGUU | 2.01 ± 0.024 | 1.858 ± 0.0054
96 | CUGGUG | 1.94 ± 0.059 | 1.76 ± 0.022

Row | Variant | normalized RNA/DNA level with ligand (log10) (hypoxanthine [1]) | normalized RNA/DNA level without ligand (log10) (hypoxanthine [2])
97 | CUGGUC | 1.96 ± 0.026 | 1.93 ± 0.023
98 | CUGGUA | 1.93 ± 0.022 | 1.773 ± 0.01
99 | UUGUCU | 1.99 ± 0.03 | 2.02 ± 0.083
100 | UUGUCA | 1.99 ± 0.037 | 1.946 ± 0.01
101 | UUGUCC | 1.99 ± 0.03 | 2.03 ± 0.067
102 | UUGUCG | 1.99 ± 0.025 | 1.947 ± 0.0075
103 | CUUCUG | 1.948 ± 0.013 | 1.91 ± 0.053
104 | CUUCUC | 2.041 ± 0.013 | 2.03 ± 0.059
105 | CUUCUA | 1.97 ± 0.051 | 1.85 ± 0.077
106 | CUUCUU | 2.01 ± 0.066 | 1.868 ± 0.0019
107 | UUGUAA | 1.976 ± 0.014 | 1.9 ± 0.042
108 | UUGUAG | 1.99 ± 0.025 | 1.84 ± 0.025
109 | UUGUAC | 2 ± 0.025 | 1.973 ± 0.0097
110 | CUGUUG | 1.964 ± 0.0068 | 1.8708 ± 0.00036
111 | CUGUUU | 2.02 ± 0.046 | 1.956 ± 0.006
112 | CUGUUC | 1.97 ± 0.021 | 1.861 ± 0.0058
113 | CUGGCU | 1.96 ± 0.077 | 1.915 ± 0.0057
114 | CUGGCG | 1.97 ± 0.029 | 1.827 ± 0.0095
115 | CUGGCC | 1.98 ± 0.16 | 1.91 ± 0.042
116 | CUGGCA | 1.971 ± 0.0092 | 1.88 ± 0.039
